Measurements reported in patent US20250361274A1, “PEPTIDE AND PEPTIDE-CONTAINING AGENT” (PEPTIDREAM INC., priority 2022, published 2025).
Numbered stars: 1 amine (or outer) side, 2 acyl side, 3 side chain; on linkers, the order of the positions; unused ones are H or OH. Bridge positions count the residues as written; N and C are the ends. Square brackets hold non-standard residues; d marks the D form. KCOpipzaa = N6-(4-(carboxymethyl)piperazine-1-carbonyl)-L-lysine, O=C(NCCCC[C@H](N[*:1])C(=O)[*:2])N1CCN(CC(=O)[*:3])CC1; 3Pal(6-Ph) = N[C@@H](Cc1ccc(-c2ccccc2)nc1)C(=O)O; Phe(4-COOH) = N[C@@H](Cc1ccc(C(=O)O)cc1)C(=O)O; Bip = N[C@@H](Cc1ccc(-c2ccccc2)cc1)C(=O)O; 3Pal(6-NH2) = Nc1ccc(C[C@H](N)C(=O)O)cn1; Aad = N[C@@H](CCCC(=O)O)C(=O)O; βAla = NCCC(=O)O

Assays:
[1] = biological target: T1, BMP4 (Homo sapiens, UniProt P12644); experiment: BMP4 signal transduction inhibitory activity: SMAD1 phosphorylation by BMP4 stimulus, AlphaLISA SureFire, A549 cells; type: cell-based; conditions: inhibition of SMAD1 phosphorylation by BMP4 stimulus, A549 cells, ND
T1 sequence (P12644 293-408): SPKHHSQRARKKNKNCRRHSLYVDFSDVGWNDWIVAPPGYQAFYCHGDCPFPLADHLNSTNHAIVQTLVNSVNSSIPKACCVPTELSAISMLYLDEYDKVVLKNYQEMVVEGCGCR

[2] = biological target: T2, BMP7 (Homo sapiens, UniProt P18075); experiment: BMP7 signal transduction inhibitory activity: SMAD1 phosphorylation by BMP7 stimulus, A549 cells; type: cell-based; conditions: inhibition of SMAD1 phosphorylation by BMP7 stimulus, A549 cells, ND
T2 sequence (P18075 293-431): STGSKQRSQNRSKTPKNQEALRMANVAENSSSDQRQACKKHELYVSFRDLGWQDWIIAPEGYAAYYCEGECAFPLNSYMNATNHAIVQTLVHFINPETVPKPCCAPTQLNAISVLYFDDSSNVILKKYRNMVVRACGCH
In short: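 Inhibition was measured as loss of BMP7-induced SMAD1 phosphorylation, using 10 nM BMP7 on A549 cells. Most peptides were given as three-concentration sets, such as 1/10/100, 10/100/1,000, 100/300/1,000 or 10/30/90 nM. Others were given as eight 1/3-ratio dilutions from 100 or 1,000 nM, alongside Noggin as control.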

[3] = peptides of Synthesis 2, classes A-C
[4] = peptides of Synthesis 2, classes A-D
[5] = peptides of Synthesis 1, classes D-F
[6] = peptides of Synthesis 1, classes E, F

| Substance | aLISA BMP4 [1, 3] | aLISA BMP7 [2, 4] | aLISA BMP4 [1, 5] | aLISA BMP7 [2, 6] |
| --- | --- | --- | --- | --- |
| 114 (EKVYVKRFPYPFYFFSCG; not fully specified; MOD_RES 2 K represents N6-(4-(Carboxymethyl) piperazine-1-carbonyl)-L-lysine(KCOpipzaa); MOD_RES 6 K represents N6-(4-(Carboxymethyl) piperazine-1-carbonyl)-L-lysine(KCOpipzaa); MOD_RES 8 F represents (S)-3-(1,1'-Biphenyl-4-yl)-2-aminopropanoic acid(Bph); MOD_RES 12 F represents (S)-3-(1,1'-Biphenyl-4-yl)-2-aminopropanoic acid(Bph); MOD_RES 14 F represents (S)-4-(2-amino-2-carboxyethyl)benzoic aci) [compound 114] | A (showed an inhibitory activity of 50% or more in a zone to which the peptide was added to in an amount of 0.2 nM) | C (showed less than 50% of inhibitory activity in 10 nM-addition zone and showed 50% or more of inhibitory activity in 100 nM-addition zone) | – | – |
| 115 (EKVYVKRFPYPFYFFSCG; not fully specified; MOD_RES 2 K represents N6-(4-(Carboxymethyl) piperazine-1-carbonyl)-L-lysine(KCOpipzaa); MOD_RES 6 K represents N6-(4-(Carboxymethyl) piperazine-1-carbonyl)-L-lysine(KCOpipzaa); MOD_RES 8 F represents (S)-3-(1,1'-Biphenyl-4-yl)-2-aminopropanoic acid(Bph); MOD_RES 12 F represents (S)-3-(1,1'-Biphenyl-4-yl)-2-aminopropanoic acid(Bph); MOD_RES 14 F represents (S)-4-(2-amino-2-carboxyethyl)benzoic aci) [compound 115] | A (showed an inhibitory activity of 50% or more in a zone to which the peptide was added to in an amount of 0.2 nM) | C (showed less than 50% of inhibitory activity in 10 nM-addition zone and showed 50% or more of inhibitory activity in 100 nM-addition zone) | – | – |
| 116 (EKVYVKRFPYPFYFFSCA; not fully specified; MOD_RES 2 K represents N6-(4-(Carboxymethyl) piperazine-1-carbonyl)-L-lysine(KCOpipzaa); MOD_RES 6 K represents N6-(4-(Carboxymethyl) piperazine-1-carbonyl)-L-lysine(KCOpipzaa); MOD_RES 8 F represents (S)-3-(1,1'-Biphenyl-4-yl)-2-aminopropanoic acid(Bph); MOD_RES 12 F represents (S)-3-(1,1'-Biphenyl-4-yl)-2-aminopropanoic acid(Bph); MOD_RES 14 F represents (S)-4-(2-amino-2-carboxyethyl)benzoic aci) [compound 116] | A (showed an inhibitory activity of 50% or more in a zone to which the peptide was added to in an amount of 0.2 nM) | C (showed less than 50% of inhibitory activity in 10 nM-addition zone and showed 50% or more of inhibitory activity in 100 nM-addition zone) | – | – |
| 117 (EKVYVKRFPYPFYFFSCAE; not fully specified; MOD_RES 2 K represents N6-(4-(Carboxymethyl) piperazine-1-carbonyl)-L-lysine(KCOpipzaa); MOD_RES 6 K represents N6-(4-(Carboxymethyl) piperazine-1-carbonyl)-L-lysine(KCOpipzaa); MOD_RES 8 F represents (S)-3-(1,1'-Biphenyl-4-yl)-2-aminopropanoic acid(Bph); MOD_RES 12 F represents (S)-3-(1,1'-Biphenyl-4-yl)-2-aminopropanoic acid(Bph); MOD_RES 14 F represents (S)-4-(2-amino-2-carboxyethyl)benzoic aci) [compound 117] | C (showed an inhibitory activity of less than 50% in 0.2 nM-addition zone and showed an inhibitory activity of 50% or more in 2 nM-addition zone were defined as B or C) | C (showed less than 50% of inhibitory activity in 10 nM-addition zone and showed 50% or more of inhibitory activity in 100 nM-addition zone) | – | – |
| 118 (EKVYVKRFPYPFYFFSCAE; not fully specified; MOD_RES 2 K represents N6-(4-(Carboxymethyl) piperazine-1-carbonyl)-L-lysine(KCOpipzaa); MOD_RES 6 K represents N6-(4-(Carboxymethyl) piperazine-1-carbonyl)-L-lysine(KCOpipzaa); MOD_RES 8 F represents (S)-3-(1,1'-Biphenyl-4-yl)-2-aminopropanoic acid(Bph); MOD_RES 12 F represents (S)-3-(1,1'-Biphenyl-4-yl)-2-aminopropanoic acid(Bph); MOD_RES 14 F represents (S)-4-(2-amino-2-carboxyethyl)benzoic aci) [compound 118] | A (showed an inhibitory activity of 50% or more in a zone to which the peptide was added to in an amount of 0.2 nM) | C (showed less than 50% of inhibitory activity in 10 nM-addition zone and showed 50% or more of inhibitory activity in 100 nM-addition zone) | – | – |
| 120 ({CH2CO}-E[KCOpipzaa]VYV[KCOpipzaa]R[3Pal(6-Ph)]SYP[Bip]Y[Phe(4-COOH)][Phe(4-COOH)]SCG-NH2; thioether N-17; not fully specified) [compound 120] | A (showed an inhibitory activity of 50% or more in a zone to which the peptide was added to in an amount of 0.2 nM) | ND (the inhibitory activity was less than 30% at the maximum concentration evaluated) | – | – |
| 121 ({CH2CO}-ERV[Phe(4-COOH)]VDR[Bip]PYP[Bip]Y[Phe(4-COOH)][Phe(4-COOH)]SC[βAla][dE]-OH; thioether N-17; not fully specified) [compound 121] | A (showed an inhibitory activity of 50% or more in a zone to which the peptide was added to in an amount of 0.2 nM) | B (showed less than 50% of inhibitory activity in 1 nM-addition zone and showed 50% or more of inhibitory activity in 10 nM-addition zone) | – | – |
| 122 ({CH2CO}-ERV[Phe(4-COOH)]V[KCOpipzaa]R[Bip]PYP[Bip]Y[Phe(4-COOH)][Phe(4-COOH)]SC[βAla][dE]-OH; thioether N-17; not fully specified) [compound 122] | A (showed an inhibitory activity of 50% or more in a zone to which the peptide was added to in an amount of 0.2 nM) | C (showed less than 50% of inhibitory activity in 10 nM-addition zone and showed 50% or more of inhibitory activity in 100 nM-addition zone) | – | – |
| 123 ({CH2CO}-ERV[Phe(4-COOH)]V[KCOpipzaa]R[Bip]PYV[Bip]Y[Phe(4-COOH)][Phe(4-COOH)]SC[βAla][dE]-OH; thioether N-17; not fully specified) [compound 123] | A (showed an inhibitory activity of 50% or more in a zone to which the peptide was added to in an amount of 0.2 nM) | C (showed less than 50% of inhibitory activity in 10 nM-addition zone and showed 50% or more of inhibitory activity in 100 nM-addition zone) | – | – |
| 124 ({CH2CO}-ERV[Phe(4-COOH)]V[KCOpipzaa]R[Bip]SYV[Bip]Y[Phe(4-COOH)][Phe(4-COOH)]SC[βAla][dE]-OH; thioether N-17; not fully specified) [compound 124] | A (showed an inhibitory activity of 50% or more in a zone to which the peptide was added to in an amount of 0.2 nM) | C (showed less than 50% of inhibitory activity in 10 nM-addition zone and showed 50% or more of inhibitory activity in 100 nM-addition zone) | – | – |
| 125 ({CH2CO}-E[Aad]VYVDR[Bip]PYV[Bip]Y[Phe(4-COOH)][Phe(4-COOH)]SCG-NH2; thioether N-17; not fully specified) [compound 125] | – | – | E (showed less than 50% of inhibitory activity in 0.2 nM-addition zone and showed 50% or more of inhibitory activity in 2 nM-addition zone) | E (showed 50% or more of inhibitory activity in a zone to which the peptide was added in an amount of 10 nM) |
| 131 ({CH2CO}-ERVYDDR[Bip]PYV[Bip]Y[Phe(4-COOH)][Phe(4-COOH)]SCG-NH2; thioether N-17; not fully specified) [compound 131] | – | – | D (showed 50% or more of inhibitory activity in 0.2 nM-addition zone) | F (showed less than 50% of inhibitory activity in 10 nM-addition zone and showed 50% or more of inhibitory activity in 100 nM-addition zone) |
| 132 ({CH2CO}-ERVYVSR[Bip]PYV[Bip]Y[Phe(4-COOH)][Phe(4-COOH)]SCG-NH2; thioether N-17; not fully specified) [compound 132] | – | – | E (showed less than 50% of inhibitory activity in 0.2 nM-addition zone and showed 50% or more of inhibitory activity in 2 nM-addition zone) | ND (the inhibitory activity was less than 30% at the maximum concentration evaluated) |
| 133 ({CH2CO}-ERVYVD[3Pal(6-NH2)][Bip]PYV[Bip]Y[Phe(4-COOH)][Phe(4-COOH)]SCG-NH2; thioether N-17; not fully specified) [compound 133] | – | – | E (showed less than 50% of inhibitory activity in 0.2 nM-addition zone and showed 50% or more of inhibitory activity in 2 nM-addition zone) | E (showed 50% or more of inhibitory activity in a zone to which the peptide was added in an amount of 10 nM) |
